Ends that are not written are not given here. Ser‑Gly linker = flexible serine-glycine linker, six amino acids long
How the values were obtained:
[1] = target: T1, B-cell lymphoma extra-large protein (Bcl-xL), first 209 amino acids with N-terminal avitag (UniProt Q07817 1-209, biotin on the avitag (BirA biotin ligase); a non-biotinylated form was used as the excess competitor in solution in the off-rate assays); assay: radiolabeled HA-tagged peptide off-rate from immobilized Bcl-xL
T1 construct: range 1-209; Expressed in E. coli BL21(DE3); Used in solution (forward assays) or immobilized through biotin on streptavidin plates or beads (reverse assay, off-rate and HTSK experiments); not shown: His tag implied (pET24a NdeI/XhoI, Ni-NTA purification, anti-HIS probe)
Protocol: The radiolabeled peptides were allowed to bind to 30 pmol immobilized Bcl-xL for 1 hour in sample buffer (1×PBS, 1% (w/v) BSA, 0.1% (v/v) Tween 20, 10 μM biotin). The beads were magnetically separated, and washed 5× with sample buffer. The beads were resuspended in 1 mL of sample buffer containing 3 μM non-biotinylated Bcl-xL (˜100× molar excess relative to immobilized biotinylated Bcl-xL). At various time points, 100 μL of slurry was removed and the beads were magnetically separated and washed. The percent remaining at each time point was determined by dividing the counts per minute (cpm) on beads by total cpm (beads+washes). The peptide off-rate was determined by an exponential fit of the Percent counts on beads vs. Time (s).
The peptide ligands were made using a C-terminal HA tag, and affinity purified.

[2] = target: T1, B-cell lymphoma extra-large protein …; assay: radiolabeled peptide off-rate, reference D1

T1 sequence (Q07817 other isoform, or with tags, fused parts or gaps): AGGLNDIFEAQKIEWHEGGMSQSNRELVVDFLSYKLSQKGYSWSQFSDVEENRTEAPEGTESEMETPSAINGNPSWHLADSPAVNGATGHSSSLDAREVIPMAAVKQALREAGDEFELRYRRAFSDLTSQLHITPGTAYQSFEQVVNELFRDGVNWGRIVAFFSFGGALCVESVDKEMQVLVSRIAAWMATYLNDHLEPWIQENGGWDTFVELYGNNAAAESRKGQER

koff [1]: 5.9e-07 s⁻¹ | fold slower off-rate than D1 [2]: > 3 fold
B1: D79, radiolabeled in vitro translated peptide with C-terminal serine-glycine linker and HA tag (peptide)
peptide: MIDTNVILNYKKAADHFSITM-{Ser‑Gly linker-HA tag}
modifications: also: 35S-labeled methionine
notes: Frequency rank 79 in the doped selection pool; also called peptide D79; not shown: flexible serine-glycine linker, six amino acids long; HA tag

Reference: patent publication US20180172683A1 (published 2018)
